Measured values as given in patent US20080050387A1, “Non-Androgen Dependent Roles for Androgen Receptor and Non-Androgen Related Inhibitors of Androgen Receptor” (priority 2003, published 2008).

Molecular target: T1, VP16-AR containing the residues 37 to 919 (human), P10275
T1 chain: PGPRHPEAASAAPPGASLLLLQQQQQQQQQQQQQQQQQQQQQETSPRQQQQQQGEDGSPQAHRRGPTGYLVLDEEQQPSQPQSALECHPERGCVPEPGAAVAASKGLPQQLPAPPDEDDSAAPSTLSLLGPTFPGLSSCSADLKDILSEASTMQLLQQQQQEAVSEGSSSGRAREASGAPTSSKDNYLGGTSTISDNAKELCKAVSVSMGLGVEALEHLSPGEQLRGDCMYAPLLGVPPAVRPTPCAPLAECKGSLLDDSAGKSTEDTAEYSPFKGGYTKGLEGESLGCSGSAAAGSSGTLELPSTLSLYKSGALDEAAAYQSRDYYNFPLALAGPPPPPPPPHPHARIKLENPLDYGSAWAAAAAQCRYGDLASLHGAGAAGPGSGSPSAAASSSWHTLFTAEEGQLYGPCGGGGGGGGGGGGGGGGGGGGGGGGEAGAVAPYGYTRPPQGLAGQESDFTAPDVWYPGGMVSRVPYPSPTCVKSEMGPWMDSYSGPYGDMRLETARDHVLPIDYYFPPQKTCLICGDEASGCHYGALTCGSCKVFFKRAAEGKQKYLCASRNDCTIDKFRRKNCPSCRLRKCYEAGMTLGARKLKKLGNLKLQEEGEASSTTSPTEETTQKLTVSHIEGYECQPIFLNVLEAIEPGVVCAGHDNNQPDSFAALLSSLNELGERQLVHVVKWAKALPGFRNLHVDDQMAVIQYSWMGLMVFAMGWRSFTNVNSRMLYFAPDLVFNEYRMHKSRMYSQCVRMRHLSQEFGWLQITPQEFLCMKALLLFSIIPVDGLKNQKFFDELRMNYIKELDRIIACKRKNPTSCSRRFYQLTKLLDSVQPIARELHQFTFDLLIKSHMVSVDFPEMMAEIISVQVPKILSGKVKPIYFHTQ
Experiment: cell-based or functional assay

B1: D30 peptide (…), LXXLL motif peptide (peptide)
peptide: HPTHSSRLWELLMEATPTM
modifications: not checked
Which two-hybrid peptide assay (pG4-LUC reporter, PC-3 cells, with against without 10 nM DHT) does the source give for B1 here?
The two-hybrid peptide assay (pG4-LUC reporter, PC-3 cells, with against without 10 nM DHT) was 350 fold.
